Measurements taken from patent US20250276080A1 (Amgen, published 2025).
Where no end group is shown, it is not given here. [ ]: non-standard residue; d: D form. Aib = CC(C)(N)C(=O)O

How the values were obtained:
Test in all cases: cell-based or functional assay
[1] = molecular target: human glucagon-like peptide-1 receptor (human, UniProt P43220 24-463)
human glucagon receptor [2] = molecular target: human glucagon receptor (human, UniProt P47871 26-477)
Target sequence in this assay (P47871 26-477): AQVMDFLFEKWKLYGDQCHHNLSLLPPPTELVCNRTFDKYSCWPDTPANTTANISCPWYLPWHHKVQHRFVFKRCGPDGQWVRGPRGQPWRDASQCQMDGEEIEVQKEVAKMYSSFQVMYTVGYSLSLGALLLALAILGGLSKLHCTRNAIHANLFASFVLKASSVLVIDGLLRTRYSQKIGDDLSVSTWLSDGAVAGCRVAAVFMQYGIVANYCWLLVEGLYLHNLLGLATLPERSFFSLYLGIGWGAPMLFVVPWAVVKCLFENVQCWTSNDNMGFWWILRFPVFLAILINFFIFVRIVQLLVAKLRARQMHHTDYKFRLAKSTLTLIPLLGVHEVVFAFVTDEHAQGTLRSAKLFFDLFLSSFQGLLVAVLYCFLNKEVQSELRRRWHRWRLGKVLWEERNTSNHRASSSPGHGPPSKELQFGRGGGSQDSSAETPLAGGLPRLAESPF

human glucagon receptor [3] = molecular target: human glucagon receptor (human, UniProt P47871 26-477); remark: listed apart in the source
Target sequence in this assay (P47871 26-477): as above

human GLP-1 receptor = human GLP-1 receptor (human, UniProt P43220 24-463)

| Binder | hGLP-1R EC50 (pM) [1] | hGCGR EC50 (pM) (human glucagon receptor [2]) | hGCGR EC50 (pM) (human glucagon receptor [3]) | hGLP-1R EC50 (pM) (human GLP-1 receptor) |
| --- | --- | --- | --- | --- |
| Conjugate 40741: aGIPR 5G12 SEFL2 E384C-39903 (other, N-term acetyl-thioether to Cys; d-Ser2; K28 eps-NH linked to linker C-term; C276 conjugated to linker) heavy: QVQLVESGGGVVQPGRSLRLSCTASGFTFSSYGIHWVRQAPGKGLEWVAVIWYDGSNKFHADSVKGRFTISRDNSKNTLYLQMNSLRAEDSAMYFCARGKVAGMPEAFEIWGQGTKVTVSSASTKGPSVFPLAPSSKSTSGGTAALGCLVKDYFPEPVTVSWNSGALTSGVHTFPAVLQSSGLYSLSSVVTVPSSSLGTQTYICNVNHKPSNTKVDKKVEPKSCDKTHTCPPCPAPELLGGPSVFLFPPKPKDTLMISRTPEVTCVVVDVSHEDPCVKFNWYVDGVEVHNAKTKPCEEQYGSTYRCVSVLTVLHQDWLNGKEYKCKVSNKALPAPIEKTISKAKGQPREPQVYTLPPSREEMTKNQVSLTCLVKGFYPSDIAVEWESNGQPENNYKTTPPVLDSDGSFFLYSKLTVDKSRWQQGNVFSCSVMHEALHNHYTQKSLSLSPGK light: DIQLTQSPSSLSASVGDRVTITCRASQTISRFLNWYQQKPGKAPELLIYVASSLQSGVPSRFSGSGSGTDFTLTISSLQPEDFATYYCQQSYSTLISFGQGTKLEITRTVAAPSVFIFPPSDEQLKSGTASVVCLLNNFYPREAKVQWKVDNALQSGNSQESVTEQDSKDSTYSLSSTLTLSKADYEKHKVYACEVTHQGLSSPVTKSFNRGEC peptide: HSQGTFTSDYSKYLDQRRAQDFVQWLLKT GSPAPAPAPAPAPAPAPAPAPASGG | 8020 pM | 40.9 pM |  |  |
| Conjugate 88013: aGIPR 5G12 SEFL2 E384C-87021 (other, N-terminus conjugated to heavy-chain Cys; K28 side chain amide-linked to linker C-terminus; C276 conjugated to linker) heavy: QVQLVESGGGVVQPGRSLRLSCTASGFTFSSYGIHWVRQAPGKGLEWVAVIWYDGSNKFHADSVKGRFTISRDNSKNTLYLQMNSLRAEDSAMYFCARGKVAGMPEAFEIWGQGTKVTVSSASTKGPSVFPLAPSSKSTSGGTAALGCLVKDYFPEPVTVSWNSGALTSGVHTFPAVLQSSGLYSLSSVVTVPSSSLGTQTYICNVNHKPSNTKVDKKVEPKSCDKTHTCPPCPAPELLGGPSVFLFPPKPKDTLMISRTPEVTCVVVDVSHEDPCVKFNWYVDGVEVHNAKTKPCEEQYGSTYRCVSVLTVLHQDWLNGKEYKCKVSNKALPAPIEKTISKAKGQPREPQVYTLPPSREEMTKNQVSLTCLVKGFYPSDIAVEWESNGQPENNYKTTPPVLDSDGSFFLYSKLTVDKSRWQQGNVFSCSVMHEALHNHYTQKSLSLSPGK light: DIQLTQSPSSLSASVGDRVTITCRASQTISRFLNWYQQKPGKAPELLIYVASSLQSGVPSRFSGSGSGTDFTLTISSLQPEDFATYYCQQSYSTLISFGQGTKLEITRTVAAPSVFIFPPSDEQLKSGTASVVCLLNNFYPREAKVQWKVDNALQSGNSQESVTEQDSKDSTYSLSSTLTLSKADYEKHKVYACEVTHQGLSSPVTKSFNRGEC peptide: HSQGTFTSDYSKYLDAKRAQEFVEWLLKS GGGGSGGGGSPAPAPAPAPAPASGG |  |  | 41.3 pM |  |
| Conjugate 92868: aGIPR 5G12 SEFL2 E384C-92840 (other, N-terminus conjugated to heavy-chain Cys; d-Ser2; K28 side chain amide-linked to linker C-terminus; C276 conjugated to linker) heavy: QVQLVESGGGVVQPGRSLRLSCTASGFTFSSYGIHWVRQAPGKGLEWVAVIWYDGSNKFHADSVKGRFTISRDNSKNTLYLQMNSLRAEDSAMYFCARGKVAGMPEAFEIWGQGTKVTVSSASTKGPSVFPLAPSSKSTSGGTAALGCLVKDYFPEPVTVSWNSGALTSGVHTFPAVLQSSGLYSLSSVVTVPSSSLGTQTYICNVNHKPSNTKVDKKVEPKSCDKTHTCPPCPAPELLGGPSVFLFPPKPKDTLMISRTPEVTCVVVDVSHEDPCVKFNWYVDGVEVHNAKTKPCEEQYGSTYRCVSVLTVLHQDWLNGKEYKCKVSNKALPAPIEKTISKAKGQPREPQVYTLPPSREEMTKNQVSLTCLVKGFYPSDIAVEWESNGQPENNYKTTPPVLDSDGSFFLYSKLTVDKSRWQQGNVFSCSVMHEALHNHYTQKSLSLSPGK light: DIQLTQSPSSLSASVGDRVTITCRASQTISRFLNWYQQKPGKAPELLIYVASSLQSGVPSRFSGSGSGTDFTLTISSLQPEDFATYYCQQSYSTLISFGQGTKLEITRTVAAPSVFIFPPSDEQLKSGTASVVCLLNNFYPREAKVQWKVDNALQSGNSQESVTEQDSKDSTYSLSSTLTLSKADYEKHKVYACEVTHQGLSSPVTKSFNRGEC peptide: HSQGTFTSDYSKYLDEKRAREFVEWLLKS GGGGSGGGGSPAPAPAPAPAPASGG |  |  | 127 pM | 289 pM |
| Conjugate 91659: aGIPR 5G12 SEFL2 E384C-91255 (other, N-terminus conjugated to heavy-chain Cys; d-Ser2; K28 side chain amide-linked to linker C-terminus; C276 conjugated to linker) heavy: QVQLVESGGGVVQPGRSLRLSCTASGFTFSSYGIHWVRQAPGKGLEWVAVIWYDGSNKFHADSVKGRFTISRDNSKNTLYLQMNSLRAEDSAMYFCARGKVAGMPEAFEIWGQGTKVTVSSASTKGPSVFPLAPSSKSTSGGTAALGCLVKDYFPEPVTVSWNSGALTSGVHTFPAVLQSSGLYSLSSVVTVPSSSLGTQTYICNVNHKPSNTKVDKKVEPKSCDKTHTCPPCPAPELLGGPSVFLFPPKPKDTLMISRTPEVTCVVVDVSHEDPCVKFNWYVDGVEVHNAKTKPCEEQYGSTYRCVSVLTVLHQDWLNGKEYKCKVSNKALPAPIEKTISKAKGQPREPQVYTLPPSREEMTKNQVSLTCLVKGFYPSDIAVEWESNGQPENNYKTTPPVLDSDGSFFLYSKLTVDKSRWQQGNVFSCSVMHEALHNHYTQKSLSLSPGK light: DIQLTQSPSSLSASVGDRVTITCRASQTISRFLNWYQQKPGKAPELLIYVASSLQSGVPSRFSGSGSGTDFTLTISSLQPEDFATYYCQQSYSTLISFGQGTKLEITRTVAAPSVFIFPPSDEQLKSGTASVVCLLNNFYPREAKVQWKVDNALQSGNSQESVTEQDSKDSTYSLSSTLTLSKADYEKHKVYACEVTHQGLSSPVTKSFNRGEC peptide: HSQGTFTSDYSKYLDEKRAQEFVEWLLKS GGGGSGGGGSPAPAPAPAPAPASGG |  |  | 152 pM | 6750 pM |
| Conjugate 25435: Fc SEFL2 T487C-15997 (other, not fully specified; also: thioether at chain A 139 to a chain's N-terminus via acetyl, bond at chain B 28 to a chain's C-terminus) chain 1: DKTHTCPPCPAPELLGGPSVFLFPPKPKDTLMISRTPEVTCVVVDVSHEDPEVKFNWYVDGVEVHNAKTKPCEEQYGSTYRCVSVLTVLHQDWLNGKEYKCKVSNKALPAPIEKTISKAKGQPREPQVYTLPPSREEMCKNQVSLTCLVKGFYPSDIAVEWESNGQPENNYKTTPPVLDSDGSFFLYSKLTVDKSRWQQGNVFSCSVMHEALHNHYTQKSLSLSPGK peptide: H[dS]QGTFTSDYSKYLD[Aib]RRAQDFVQWLLKT chain 2: Ac-GSPAPAPAPAPAPAPAPAPAPASGG | 9770 pM | 9.1 pM |  |  |
